Assay results as given in paper PMC11772769, “Selective cargo and membrane recognition by SNX17 regulates its interaction with Retriever” (EMBO Reports, 2024).

Biological target: Peptide SNX17_(CT-18) (UniProt Q15036)
Assay: fluorescence polarisation

Kd: 5.3 µM
Substance: VPS26C-VPS35L_(110-598) complex (from UniProt O14972 1-297; Q7Z3J2 110-598)
